US10450368 (DUKE UNIVERSITY, dated 2019)

Legend:
[1] = biological target: T1, HIV-1 CH505 transmitted/founder gp120 Env (HIV-1); experiment: competition ELISA, blocking of sCD4 binding to gp120
T1 construct: domain: gp120; also called CH505.TF gp120; CH505 TF gp120 Env

Sm (Smith antigen) [2] = biological target: T2, Sm (Smith antigen); experiment: AtheNA, Ab 12.5 ug/ml
T2 construct: Protein complex

SSB [3] = biological target: T3, SSB (UniProt P05455 1-408); experiment: AtheNA, Ab 12.5 ug/ml
T3 sequence: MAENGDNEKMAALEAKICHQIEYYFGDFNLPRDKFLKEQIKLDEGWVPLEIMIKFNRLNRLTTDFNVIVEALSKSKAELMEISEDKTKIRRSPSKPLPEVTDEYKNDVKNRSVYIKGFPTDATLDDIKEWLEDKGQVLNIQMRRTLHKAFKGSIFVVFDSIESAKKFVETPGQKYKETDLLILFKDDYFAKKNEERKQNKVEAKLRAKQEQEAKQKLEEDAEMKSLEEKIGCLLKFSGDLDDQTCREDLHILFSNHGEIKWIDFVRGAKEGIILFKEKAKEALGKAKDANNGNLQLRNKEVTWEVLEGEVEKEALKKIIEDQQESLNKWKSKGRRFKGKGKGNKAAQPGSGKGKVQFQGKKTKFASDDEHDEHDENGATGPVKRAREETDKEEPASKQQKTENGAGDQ

Histones [4] = biological target: T4, Histones; experiment: AtheNA, Ab 12.5 ug/ml
T4 construct: Mixture of proteins

Jo-1 [5] = biological target: T5, Jo-1 (UniProt P12081 1-509); experiment: AtheNA, Ab 12.5 ug/ml
T5 sequence: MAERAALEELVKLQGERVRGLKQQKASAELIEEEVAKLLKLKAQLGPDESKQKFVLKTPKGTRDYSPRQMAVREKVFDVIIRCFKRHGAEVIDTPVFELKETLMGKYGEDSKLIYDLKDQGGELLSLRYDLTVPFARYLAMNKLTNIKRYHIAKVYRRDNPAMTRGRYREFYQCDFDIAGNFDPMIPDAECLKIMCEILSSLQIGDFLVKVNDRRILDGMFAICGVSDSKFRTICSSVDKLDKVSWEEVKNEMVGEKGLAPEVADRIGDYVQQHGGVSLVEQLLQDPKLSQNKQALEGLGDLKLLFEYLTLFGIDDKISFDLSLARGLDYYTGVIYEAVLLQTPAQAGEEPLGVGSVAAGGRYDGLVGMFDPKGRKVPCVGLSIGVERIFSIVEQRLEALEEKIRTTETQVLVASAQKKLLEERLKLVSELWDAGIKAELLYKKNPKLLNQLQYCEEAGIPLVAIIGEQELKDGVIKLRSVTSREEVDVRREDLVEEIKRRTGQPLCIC

Scl-70 [6] = biological target: T6, Scl-70 (UniProt P11387 1-765); experiment: AtheNA, Ab 12.5 ug/ml
T6 sequence: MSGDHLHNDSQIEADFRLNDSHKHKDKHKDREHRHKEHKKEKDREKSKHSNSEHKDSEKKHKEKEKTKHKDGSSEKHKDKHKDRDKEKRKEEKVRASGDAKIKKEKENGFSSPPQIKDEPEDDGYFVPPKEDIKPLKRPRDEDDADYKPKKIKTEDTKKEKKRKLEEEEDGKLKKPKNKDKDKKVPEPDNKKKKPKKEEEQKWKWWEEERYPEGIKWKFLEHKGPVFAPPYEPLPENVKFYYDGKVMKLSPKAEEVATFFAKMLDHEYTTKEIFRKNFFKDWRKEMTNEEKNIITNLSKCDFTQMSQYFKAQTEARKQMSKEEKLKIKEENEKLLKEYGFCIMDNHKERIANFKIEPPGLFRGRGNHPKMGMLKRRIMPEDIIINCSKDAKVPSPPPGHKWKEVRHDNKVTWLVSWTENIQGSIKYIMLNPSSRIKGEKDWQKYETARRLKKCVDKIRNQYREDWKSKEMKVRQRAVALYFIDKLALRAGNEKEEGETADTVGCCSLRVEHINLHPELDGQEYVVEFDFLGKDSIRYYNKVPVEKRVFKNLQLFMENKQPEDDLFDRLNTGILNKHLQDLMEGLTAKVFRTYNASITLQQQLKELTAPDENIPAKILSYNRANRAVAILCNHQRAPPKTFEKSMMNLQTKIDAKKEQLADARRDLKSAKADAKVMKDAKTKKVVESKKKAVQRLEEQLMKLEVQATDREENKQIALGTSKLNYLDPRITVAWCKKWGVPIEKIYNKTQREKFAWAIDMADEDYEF

RNP (ribonucleoprotein) [7] = biological target: T7, RNP (ribonucleoprotein); experiment: AtheNA, Ab 12.5 ug/ml
T7 construct: Protein-RNA complex

SSA [8] = biological target: T8, SSA; experiment: AtheNA, Ab 12.5 ug/ml
T8 construct: also called SSA (Ro)

Sm (Smith antigen) [9] = biological target: T2, Sm (Smith antigen); experiment: AtheNA, Ab 6.25 ug/ml
SSB [10] = biological target: T3, SSB; experiment: AtheNA, Ab 6.25 ug/ml
Histones [11] = biological target: T4, Histones; experiment: AtheNA, Ab 6.25 ug/ml
Jo-1 [12] = biological target: T5, Jo-1; experiment: AtheNA, Ab 6.25 ug/ml
Scl-70 [13] = biological target: T6, Scl-70; experiment: AtheNA, Ab 6.25 ug/ml
RNP (ribonucleoprotein) [14] = biological target: T7, RNP (ribonucleoprotein); experiment: AtheNA, Ab 6.25 ug/ml
SSA [15] = biological target: T8, SSA; experiment: AtheNA, Ab 6.25 ug/ml
Sm (Smith antigen) [16] = biological target: T2, Sm (Smith antigen); experiment: AtheNA, Ab 25 ug/ml
SSB [17] = biological target: T3, SSB; experiment: AtheNA, Ab 25 ug/ml
Histones [18] = biological target: T4, Histones; experiment: AtheNA, Ab 25 ug/ml
Jo-1 [19] = biological target: T5, Jo-1; experiment: AtheNA, Ab 25 ug/ml
SSA [20] = biological target: T8, SSA; experiment: AtheNA, Ab 25 ug/ml

B1: CH235 (antibody, V domains shown)
VH: QVQLVQSGAEVKKPGASVTVSCQASGYTFTNYYVHWVRQAPGQGLQLMGWIDPSWGRTNYAQNFQGRITMTRDTSTSTVYMEMRSLRSEDTAVYYCARNVATEGSLLHYDYWGQGTLVTVSA
VL: EIVLTQSPATLSVSPGERATLSCRASQSVRSNLAWYQQRPGQAPRLLIYGTSTRATGVPARFSGRGSGTEFTLAISSMQSEDFAVYLCLQYNNWWTFGQGTKVEIK
notes: also called CH235_4A
[1]
  IC50: 26.3 µg/mL
Sm (Smith antigen) [2]
  AtheNA signal: 8 relative luminescence units
SSB [3]
  AtheNA signal: 5 relative luminescence units
Histones [4]
  AtheNA signal: 5 relative luminescence units
Jo-1 [5]
  AtheNA signal: 3 relative luminescence units
Scl-70 [6]
  AtheNA signal: 2 relative luminescence units
RNP (ribonucleoprotein) [7]
  AtheNA signal: 6 relative luminescence units
SSA [8]
  AtheNA signal: 13 relative luminescence units
Sm (Smith antigen) [9]
  AtheNA signal: 5 relative luminescence units
SSB [10]
  AtheNA signal: 6 relative luminescence units
Histones [11]
  AtheNA signal: 5 relative luminescence units
Jo-1 [12]
  AtheNA signal: 2 relative luminescence units
Scl-70 [13]
  AtheNA signal: 2 relative luminescence units
RNP (ribonucleoprotein) [14]
  AtheNA signal: 3 relative luminescence units
SSA [15]
  AtheNA signal: 12 relative luminescence units
Sm (Smith antigen) [16]
  AtheNA signal: 7 relative luminescence units
SSB [17]
  AtheNA signal: 5 relative luminescence units
Histones [18]
  AtheNA signal: 7 relative luminescence units
Jo-1 [19]
  AtheNA signal: 4 relative luminescence units
SSA [20]
  AtheNA signal: 13 relative luminescence units

B2: CH241 (antibody, V domains shown)
VH: QVQLVQSGAAVKKPGASVRVSCKASGYTFTSSHIHWVRQAPGQGPEWMGMIDPSVGRPTTAGKFQGRVTMTRDRYTSTAYMDLSSLRSEDTAVYYCARSVETTGSLLYFDYWGQGTLITVSS
VL: EIVLTQSPATLSVSPGERATLSCRASQSVRSNIAWYQQKPGQAPRLLIHGASTRATGIPGRFSGSGSGPEFTLAISSVQSEDFAVYYCQQYNDWWTFGQGTKVEIK
[1]
  IC50: 2.6 µg/mL
Sm (Smith antigen) [2]
  AtheNA signal: 7 relative luminescence units
SSB [3]
  AtheNA signal: 8 relative luminescence units
Histones [4]
  AtheNA signal: 13 relative luminescence units
Jo-1 [5]
  AtheNA signal: 6 relative luminescence units
Scl-70 [6]
  AtheNA signal: 3 relative luminescence units
RNP (ribonucleoprotein) [7]
  AtheNA signal: 5 relative luminescence units
SSA [8]
  AtheNA signal: 14 relative luminescence units
Sm (Smith antigen) [9]
  AtheNA signal: 4 relative luminescence units
SSB [10]
  AtheNA signal: 4 relative luminescence units
Histones [11]
  AtheNA signal: 9 relative luminescence units
Jo-1 [12]
  AtheNA signal: 2 relative luminescence units
Scl-70 [13]
  AtheNA signal: 1 relative luminescence units
RNP (ribonucleoprotein) [14]
  AtheNA signal: 3 relative luminescence units
SSA [15]
  AtheNA signal: 15 relative luminescence units
Sm (Smith antigen) [16]
  AtheNA signal: 11 relative luminescence units
SSB [17]
  AtheNA signal: 6 relative luminescence units
Histones [18]
  AtheNA signal: 20 relative luminescence units
Jo-1 [19]
  AtheNA signal: 5 relative luminescence units
SSA [20]
  AtheNA signal: 15 relative luminescence units
